Usually Kd stands for the equilibrium constant for the complex coming apart. Low values mean higher affinity, high ones lower affinity.

Holding throughout (assay): BLI; Octet Red 96; His-tagged PPM1G or PPP2R1A immobilised on Ni-NTA biosensors, GST-B56δ proteins in solution (100–400 nm); 50 mM Tris pH 7.5, 300 mM NaCl, 0.01% NP-40 Igepal, 1 mM DTT; 25 °C
What all share (details): both partners purified
(In general: BLI is a label-free optical method that tracks binding on a fibre tip over time.)

The target of experiment [1] is T1, GST-B56δ H282A (human, UniProt Q14738 1-602, H282A).
T1 construct: B56δ (PPP2R5D), human cDNA, full length, point mutant; source: E. coli BL21 (DE3), purified (glutathione Sepharose)

The target of experiment [2] is T2, GST-B56δ L183A (human, UniProt Q14738 1-602, L183A).
T2 construct: B56δ (PPP2R5D), human cDNA, full length, point mutant; source: E. coli BL21 (DE3), purified (glutathione Sepharose)

Experiment [3] has as its target T3, GST-B56δ (human, UniProt Q14738 1-602).
T3 construct: PP2A regulatory subunit B56δ (PPP2R5D), human cDNA, full-length protein; also called GST-B56δ wild type (WT); GST-tagged B56δ; source: E. coli BL21 (DE3), purified (glutathione Sepharose)

T3 sequence (Q14738 whole entry, stated change not applied): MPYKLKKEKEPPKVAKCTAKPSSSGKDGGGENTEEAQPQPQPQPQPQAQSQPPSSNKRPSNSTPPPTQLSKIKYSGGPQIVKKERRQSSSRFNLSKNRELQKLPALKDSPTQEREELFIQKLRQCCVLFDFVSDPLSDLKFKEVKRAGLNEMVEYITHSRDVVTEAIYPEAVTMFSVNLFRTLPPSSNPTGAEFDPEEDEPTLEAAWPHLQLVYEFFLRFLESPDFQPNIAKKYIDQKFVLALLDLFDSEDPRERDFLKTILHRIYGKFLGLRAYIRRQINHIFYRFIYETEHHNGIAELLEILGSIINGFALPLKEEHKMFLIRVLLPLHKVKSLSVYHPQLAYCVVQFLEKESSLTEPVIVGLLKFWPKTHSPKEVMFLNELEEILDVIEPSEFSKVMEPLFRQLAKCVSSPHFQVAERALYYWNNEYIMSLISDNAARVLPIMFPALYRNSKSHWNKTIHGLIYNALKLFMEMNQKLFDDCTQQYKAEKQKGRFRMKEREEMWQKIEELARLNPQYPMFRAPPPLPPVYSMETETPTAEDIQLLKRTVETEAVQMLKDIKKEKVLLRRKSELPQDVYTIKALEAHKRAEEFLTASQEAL
T2 sequence (Q14738 whole entry L183A): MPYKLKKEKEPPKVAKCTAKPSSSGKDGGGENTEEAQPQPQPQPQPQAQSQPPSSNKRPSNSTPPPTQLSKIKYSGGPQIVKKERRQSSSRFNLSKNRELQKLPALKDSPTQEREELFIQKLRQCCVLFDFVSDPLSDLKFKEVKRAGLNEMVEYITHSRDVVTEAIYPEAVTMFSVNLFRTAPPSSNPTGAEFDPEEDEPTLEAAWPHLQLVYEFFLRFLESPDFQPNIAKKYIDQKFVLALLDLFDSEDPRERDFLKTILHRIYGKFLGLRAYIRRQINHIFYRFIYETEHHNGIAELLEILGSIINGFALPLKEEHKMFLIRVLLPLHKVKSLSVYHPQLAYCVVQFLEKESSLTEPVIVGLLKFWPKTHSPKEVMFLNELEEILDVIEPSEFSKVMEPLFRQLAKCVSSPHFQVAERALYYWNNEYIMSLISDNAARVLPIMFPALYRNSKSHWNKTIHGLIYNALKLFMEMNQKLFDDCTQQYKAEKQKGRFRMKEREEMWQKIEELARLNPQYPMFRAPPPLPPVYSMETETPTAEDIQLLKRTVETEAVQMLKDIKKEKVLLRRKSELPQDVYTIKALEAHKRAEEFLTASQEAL
T1 sequence (Q14738 whole entry H282A): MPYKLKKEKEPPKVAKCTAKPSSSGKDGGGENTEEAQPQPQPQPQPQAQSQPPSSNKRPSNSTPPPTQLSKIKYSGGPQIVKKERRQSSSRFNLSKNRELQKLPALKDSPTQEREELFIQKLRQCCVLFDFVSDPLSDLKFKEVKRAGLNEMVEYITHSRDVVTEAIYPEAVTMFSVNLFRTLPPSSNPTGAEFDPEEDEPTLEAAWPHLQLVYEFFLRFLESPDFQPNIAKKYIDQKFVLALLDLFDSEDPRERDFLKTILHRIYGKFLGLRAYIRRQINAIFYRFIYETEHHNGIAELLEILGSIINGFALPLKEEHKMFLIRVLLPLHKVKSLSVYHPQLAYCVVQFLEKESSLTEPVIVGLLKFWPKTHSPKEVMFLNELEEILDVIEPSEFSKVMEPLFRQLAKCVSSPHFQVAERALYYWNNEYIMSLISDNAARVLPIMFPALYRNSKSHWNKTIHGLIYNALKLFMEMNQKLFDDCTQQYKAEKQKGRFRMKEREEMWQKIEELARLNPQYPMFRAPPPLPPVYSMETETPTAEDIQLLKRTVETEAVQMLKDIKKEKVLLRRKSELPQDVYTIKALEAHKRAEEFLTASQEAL

B1: 6xHis-tagged PPM1G (enzyme, human, UniProt O15355 1-546, looked up)
chain: MGAYLSQPNTVKCSGDGVGAPRLPLPYGFSAMQGWRVSMEDAHNCIPELDSETAMFSVYDGHGGEEVALYCAKYLPDIIKDQKAYKEGKLQKALEDAFLAIDAKLTTEEVIKELAQIAGRPTEDEDEKEKVADEDDVDNEEAALLHEEATMTIEELLTRYGQNCHKGPPHSKSGGGTGEEPGSQGLNGEAGPEDSTRETPSQENGPTAKAYTGFSSNSERGTEAGQVGEPGIPTGEAGPSCSSASDKLPRVAKSKFFEDSEDESDEAEEEEEDSEECSEEEDGYSSEEAENEEDEDDTEEAEEDDEEEEEEMMVPGMEGKEEPGSDSGTTAVVALIRGKQLIVANAGDSRCVVSEAGKALDMSYDHKPEDEVELARIKNAGGKVTMDGRVNGGLNLSRAIGDHFYKRNKNLPPEEQMISALPDIKVLTLTDDHEFMVIACDGIWNVMSSQEVVDFIQSKISQRDENGELRLLSSIVEELLDQCLAPDTSGDGTGCDNMTCIIICFKPRNTAELQPESGKRKLEEVLSTEGAEENGNSDKKKKAKRD
notes: PPM1G (PP2Cγ); The cloning into a His-tag vector is not described in the methods; also called His-PPM1G; recombinant PPM1G; source: recombinant
On to B1, for which the values for the Kd in experiment [1], in experiment [2] and in experiment [3] were 4.38 nM, 5.59 nM and 5.04 nM, respectively.

For the origin of these results see publication PMC6776900, “PPM1G forms a PPP‐type phosphatase holoenzyme with B56δ that maintains adherens junction integrity” (EMBO Reports, 2019).
